# Results reported in publication PMC9638935 (Nucleic Acids Research, 2022).
# Legend:
# [1] = target: T1, Cbp80 (tag not named for Figures 4C-D and 5D) (S. cerevisiae, UniProt P34160 1-861); assay: co-IP
# T1 sequence (looked up): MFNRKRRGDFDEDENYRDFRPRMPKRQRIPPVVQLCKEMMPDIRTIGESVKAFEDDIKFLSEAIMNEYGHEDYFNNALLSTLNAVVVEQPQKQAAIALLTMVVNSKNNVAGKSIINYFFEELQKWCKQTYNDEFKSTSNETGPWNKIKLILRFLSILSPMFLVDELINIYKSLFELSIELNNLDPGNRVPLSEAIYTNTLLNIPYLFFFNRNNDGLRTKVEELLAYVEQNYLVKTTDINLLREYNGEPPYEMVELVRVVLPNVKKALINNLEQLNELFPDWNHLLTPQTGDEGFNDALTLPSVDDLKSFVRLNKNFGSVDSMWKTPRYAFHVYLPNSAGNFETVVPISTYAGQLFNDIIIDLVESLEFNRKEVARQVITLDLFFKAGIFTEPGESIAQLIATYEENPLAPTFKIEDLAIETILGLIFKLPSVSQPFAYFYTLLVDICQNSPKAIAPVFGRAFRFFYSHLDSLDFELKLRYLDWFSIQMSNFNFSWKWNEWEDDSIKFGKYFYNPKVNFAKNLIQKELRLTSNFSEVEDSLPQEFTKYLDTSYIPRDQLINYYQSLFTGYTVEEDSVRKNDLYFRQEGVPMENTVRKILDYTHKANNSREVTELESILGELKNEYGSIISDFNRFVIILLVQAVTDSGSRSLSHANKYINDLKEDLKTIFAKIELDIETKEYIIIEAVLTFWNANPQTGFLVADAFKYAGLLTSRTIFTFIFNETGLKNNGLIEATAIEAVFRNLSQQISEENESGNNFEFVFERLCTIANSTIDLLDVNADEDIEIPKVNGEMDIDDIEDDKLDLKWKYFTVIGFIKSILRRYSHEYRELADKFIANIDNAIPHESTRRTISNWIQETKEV
# [2] = target: T2, Mex67 (S. cerevisiae, UniProt Q99257 1-599); assay: co-IP
# T2 sequence (looked up): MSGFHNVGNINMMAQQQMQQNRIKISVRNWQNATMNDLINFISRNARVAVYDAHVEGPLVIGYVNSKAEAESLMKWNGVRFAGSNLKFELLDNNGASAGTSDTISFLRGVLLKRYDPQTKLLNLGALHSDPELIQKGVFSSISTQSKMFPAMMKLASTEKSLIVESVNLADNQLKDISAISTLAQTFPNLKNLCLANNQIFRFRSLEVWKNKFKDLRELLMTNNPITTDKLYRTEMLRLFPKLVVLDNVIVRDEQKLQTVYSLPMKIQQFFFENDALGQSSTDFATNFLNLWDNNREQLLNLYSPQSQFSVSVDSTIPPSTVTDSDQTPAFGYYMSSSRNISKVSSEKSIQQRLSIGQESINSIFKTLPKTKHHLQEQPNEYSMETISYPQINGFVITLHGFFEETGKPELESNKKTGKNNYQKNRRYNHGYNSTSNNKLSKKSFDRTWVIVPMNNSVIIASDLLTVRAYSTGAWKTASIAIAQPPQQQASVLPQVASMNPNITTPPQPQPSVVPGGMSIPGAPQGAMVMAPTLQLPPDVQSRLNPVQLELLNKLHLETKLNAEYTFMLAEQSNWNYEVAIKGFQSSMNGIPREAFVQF
binder,measurement,setting,value
"Npl3 (natural protein, S. cerevisiae, UniProt Q01560 1-414, looked up) MSEAQETHVEQLPESVVDAPVEEQHQEPPQAPDAPQEPQVPQESAPQESAPQEPPAPQEQNDVPPPSNAPIYEGEESHSVQDYQEAHQHHQPPEPQPYYPPPPPGEHMHGRPPMHHRQEGELSNTRLFVRPFPLDVQESELNEIFGPFGPMKEVKILNGFAFVEFEEAESAAKAIEEVHGKSFANQPLEVVYSKLPAKRYRITMKNLPEGCSWQDLKDLARENSLETTFSSVNTRDFDGTGALEFPSEEILVEALERLNNIEFRGSVITVERDDNPPPIRRSNRGGFRGRGGFRGGFRGGFRGGFSRGGFGGPRGGFGGPRGGYGGYSRGGYGGYSRGGYGGSRGGYDSPRGGYDSPRGGYSRGGYGGPRNDYGPPRGSYGGSRGGYDGPRGDYGPPRDAYRTRDAPRERSPTR",co-IP signal in cet1-2 relative to wild type,[1],~60%
same,drop of the co-IP signal in cet1-2 and rat1-1 cells relative to wild type,[2],~20%
